# Laboratory results taken from the nanobody polyreactivity screen of Harvey et al. (2022).
# Experiment: yeast display, Sf9 membrane polyspecificity reagent, FACS + sequencing; frameworks hold sequencing errors
# In short: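 Polyreactivity labels are assigned by the sorting gate from which each nanobody was recovered. The gates were low and high (top ~1%), set on anti-HA fluorescence for expression and streptavidin fluorescence for reagent binding. Before sorting, galactose-induced (36–48 hours) yeast display cells were stained for 1 hour at 4 °C with 10% biotinylated, detergent-solubilized Sf9 membrane reagent.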
row,Sequence,polyreactivity (PSR sort gate)
1,QVQLVESGGGLVQAGGSLRLSCAASGRTFSYNAMGWYRQAPGKERELVASISSSGTSTSYADSVKGRFTISRDNAKNTVYLQMNSLKPEDTAVYYCATVRYPYWYSGPQNSRGYWGQGTQVTVSS,high polyreactivity
2,QVQLVESGGGLVQAGGSLRLSCAASGRIFYGYTMGWYRQAPGKERELVASITIRGSRTYYADSVKGRFTISRDNAKNTVYLQMNSLKPEDTAVYYCAADFVPARTVHRYDYWGQGTQVTVSS,low polyreactivity
3,QVQLVESGGGLVQAGGSLRLTCDASGGIFAVNVMGWYRQAPWKERELVAAITSTGSTYYADSVKGRFTISRDNAKNTVYLQMNSLTPEDTAVYYCAADYVYYDSYDDTVFGYDYWGQGTQVTVSS,high polyreactivity
4,QVQLVESGGGLVQAGGILSLSCAASGSTLNSYAMGWNRPAPGKERELVAAIRWSGSSTYYADSVKGRFTISRDNAKNSVFLQMNSLKPQDTAVYYCAKGYSYGRPWDIYYYCGQGTQVTVSS,low polyreactivity
5,QVQLVESGGGLVQAGGSLRLSCAASGSTFSYYAMVWYRQAPGKERELVADISSGGSTNYADSVKGRFTISRDNAKNTVYLQMNSLKPEDTAVYYCNRRYSYYDGFDYWGQGTQVTVSS,low polyreactivity
6,QVQLVESGGGLVQAGGSLRLSCAASGITLYGNAMGWYRQAPGKERELVAAITGRGGSTYYADSVKGRFTISRDNAKNTVYLQMNSLKPEDTAVYYCNKAQSRSQLYGYWGQGTQVTVSS,high polyreactivity
7,QVQLVESGGGLVQAGGSLRLSCDAAGLIFRLNAMGWYRPAPGKERELVAAISFSGGGTYYADSVKGRFTISRDNAKNTVYLQMNSLKPEDTAVYFCAADEYAVYYYYNYEYWGQGTQVTVSS,high polyreactivity
8,QVQLVESGGGLVQAGGSLRLSCAASGLIFVKYAMGWYRQAPGKERELVADITSTGGSTYYADSVKGRFTISRDNAKNTVYLQMNSLKPEDTAVYYCATDYGYYDYWGQGTQVTVSS,low polyreactivity
9,QVQLVESGGGLVQAGGSLRLSCAASGRIFGLNAMGRYRQAPGKERELVAAISERDGSTYYADSVKGRFTISRDNAKNTVYLQMNSLKPEDTAVYYCAAEKPVHYVRGVHYDYWGQGTQVTVSS,low polyreactivity
10,QVKLVDTGGGLVKAGGSLLLSCAASGSPFVWYGMGWYRQSHGKEREFDAAISTSGGRTYYADSVKGRFTISRDNAKNTVYLQMNSLKPEDTAVYYCARQPRLYFKGKLYGYWGQGTQVTVSS,high polyreactivity
11,QDQLVESGGGLVQAGGSLRLSCAASGRTFYRYAMGWSRQAPGKERELVAVISTDGSSTYYADSVKGRFTISRDNAKNTVYLQMNSLKPVDTAVYYCAARAPESYVSTRAHYYWGQGTQVTVSS,high polyreactivity
12,QVQLVESGGGLVQAGGSLRLSCAASGISFSQYARGWYRQAPGKERELVAAISGSGGDTYYADSVKGRFTISRDNAKNTVYLQMNSLKPEDTAVYYCNADYESVYYEDYDYWGQGTQVTVSS,low polyreactivity
13,QVQLVESGGGLVQAGGSLRLSCAASGSTFLANTMGWYRQAPGKEREFVAAITRRGGSTYYADSVKGRFTISRDNAKNTVYLQMNSLKPEDTAVYYCNAEWDFQYPYDYWGQGTQVTVSS,low polyreactivity
14,QVQLVESGGGLVQAGGSLRLSCAASGYTFPLYALGWYRQAPGKERELVADINIGGASTYYADSVKGRFTISRDNAKNTVYLQMNSLKPEDTAVYYCAKEYYDGFFPTFDYDYWGQVTQVTVSS,low polyreactivity
15,QDQLVESGGGLVQAGGSLRLSCAASGSTFQENAMGWYRQAPGKEREFVAAISGSGGSTYYADSVKGRFTISRDNAKNSVYLQMNSLKPEDTAVYYCAAYVTGYVNTVGSGWLVWGVDFWGQGTQVTVSS,low polyreactivity
16,QVQLVESGGGLVQAGGSLRLSCASSGYTFALYAKGWYRQAPGKERELVAAITDSDGSTYADSVKGRFTITRDNAKNTVYLQMNSVKPEDTAVYYCAAESEQWYSYVLSYDWEYDYWGQGTQVTVSS,low polyreactivity
17,QVQLVESVGGLVQAGGSLRLSCAASGSIRSYAIGWYRQAPGKERELVAAITRSGGSTYYADSVKGRFTISRDNAKNTVYLQMISLKPEDTAVYYCAARYTYSYPLFGSWGQGTQVTVSS,high polyreactivity
18,QVQLVESGGGLVQAGGSLRLSCAASGFTFYYNAMGWYRQAPGKERELVASITRSGGRTYYADSVKGRFTISRDNAMNTVYLKMNSLKPEDTAVYYCARRYPRGYYWGQGTQVTVSS,high polyreactivity
19,QVQLVESGGGLVQAGGSLRLSCAASGRTFDINAMGWYRQAPGKERELVAAISGRGGRTYYADSVKGRFTISRDNAKNTVYLQMNSLKPEDSAVYYCAARAQWSSLEYWGQGTQVTVSS,high polyreactivity
20,QVQVVESGGGLVQAGGSLRLSCAASGSICHVNAMGWYRQAPGKERELVADISKRGASTYYADSVKGRFTISRDNAKNTVYLQMNSLKPEDTAVYYCAARVVTPRRQWYTYDYWGQGTQVSVSS,high polyreactivity
21,QVQLLESGGGLVQAGGSLRLSCAASGSIFPAYSMGWYRQAPGKERELVASITGSGGSTYYADSVKGRFTISRDNAKNSVYLQMTSLKPEETAVYYCNARYYVYSATVDRYYHFYYWGQGTQVTVSS,high polyreactivity
22,QVQLVESGGGLVQAGGSLRLSCAASGRTFSTNAMGLYRQAPGKEREFVAAITGSGGSTYYADSVKGRFTISRDNAKNTVYLQINSLKPEDTAVYYCAKRSAWHTYRYGYWGQGTQVTVSS,high polyreactivity

row,Sequence,polyreactivity (PSR sort gate)
1,QVQLVESGGGLVQAGGSLRLICAASGYIFYAYALGWYRQAPGKERELVAAITDNGVSTFYADSVKGRFTISRDNAKNTVYLHMKSLKPEETAVYYCATSSTHSRGDEYWGQGTQVTVSS,low polyreactivity
2,QVQLVESGGGFVQAGGSLRLSCAASGFTFWRYTMGWYRQAPGKERELVAAINWSGGRTYYADSVKARFTISRDNAKNTVYLQMNSLTPEDTAVYYCATGYSTSVGGSQGDSWGQGTQVTVSS,high polyreactivity
3,QVQRVETGGVLVQAGGSLRLSCAASGRIFINDMGWYRQAHGKEMELVAAIRSDGSTNYADSVKGRFTFSRDTAKNTVYLQMNSLKPEDTAVYYCNVDGYYLFVRGYEYWGQGTQVTVSS,low polyreactivity
4,QVQLVDSGGGLVQAGGSLSLSCAASGSTFGYYSMGWYRESPGKERELVAAITWSGDSTYADSVKGRFTISRDNAKNTVYLQMNSLKPEDTAVYYCARRGFLGHWPRPSYDYWGQGTQVTVSS,low polyreactivity
5,QVQLVESGGGLVQAGGSLRLSCAASGGIFSYNDMGWYRQAPGKERELVAAISSGGGGITYYADSVKGRFTISRDNAKNTVYLQMNSLKPEDTAVYYCNVVPDFRAAYSSQYYYWGQGTQVTVSS,low polyreactivity
6,QVQLVESGGGLVQAGGSLRLSCAASGTIFAKYAMGWYRQAPGKERELVAAISRSSVRTRYADSVKGRFTISRDYAKNTVYLQMNSLKPEDTAVYYCNAYYRSYAYSHLDYWGQGTQVTVSS,high polyreactivity
7,QVQLVESGGGLVQAGGRLRLSCAASGFTFRRYTMGWYRQAPGKERELVAVISASGGSTYYADSEKGRFTISRDNAKNTVYLQMNSLKPEDTAVYYCNAVGTPYGLDEYWGQGTQVTVSS,high polyreactivity
8,QVQLVEAGGGLVQAGGSLRLSCAASGSTLVYNDMGWYRQAPGKEREFVAAIRSNDGSTYYADSVKGRFTISRDNAKNTVYLQMNSLKPEDTAVYFCNKDVWDGYDWPEFDYWGQGTQVTVSS,low polyreactivity
9,QVQLVESGGGLVQAGGSLRISCAASGSTFEDNAMGWYRQAPGKERELVAAITSGGNTYYADSVKGRFTISRDNSKNTVYLQMNSLKPEDTAVYYCNAVPFYYDFDYWGQGTQVTVSS,low polyreactivity
10,QVQLVESGGGLVQAGGSLRLSCAASGLTSRPYVMGWYRQAPGKERDLVAAISQTGGRTYYADSVKGRFTISRDNAKNTVYLQMNSLKPEDTAVYDCAAKYSNGSGFDYWGQGTQVTVSS,high polyreactivity
11,QVQLVESGGGLVQAGGSLRLSCAASGNIFDLYARGWSRQAPGKERELVAAISASGGRTYYADSVKGRFTISRDNAKNTVYLQMNSLKPEDTAVYYCAAVASYGTDFYYWGQGTQVTVSS,high polyreactivity
12,QVQLVESGGGLVQAGGSLRLSCAASGYTFRAYVMGWYRQAPGKERELVAGITRRGGTTYYADSVKGRFTISRDNAKNTVYLQMNSLKTEDTAVYYCNAVYRSGSIPYDSWGQGTQVTVSS,high polyreactivity
13,QVQLVESGGGLVQAGGSLRLSCAASGFTFYSNAMGWSRQAPGKERELVATIRYRGGSTYADSVKGRFTISRDNAKNTVYLQMNSLKPEDTAVYYCAARKYRSFRQRTGDYWGQGTQVTVSS,high polyreactivity
14,QVHLVESGGGIVQAGGSLRLSCAASGFTFQYNAMGWYRQAPGKERELVAAISYSGTSTYYADSVKGRFTISRDNPKNTVSLQKNSLKPEETAVYYCAVPRLSGSPSAYGYYYWGQGTQVTVSS,high polyreactivity
15,QVQLVESGGGLVQAGGSLRLSCAASGITFGRNTMGWYRQAPGKERELVAAIDSGGNTYADSVKGRFTISRDNAKNTVYLQMNSLKPEDSAVYYCAVDGGEFSSYGYWGQGTQVTVSS,low polyreactivity
16,QVQLVESGGGLVQAGGSLRLRCAASGSIFSSNAMGWYRQAPGKERELVAAITSGGSTYYADSVKGRFTISRDNAKHTVYLQMNSLKPEDTAVYYCAADDWGDGVYKLDYWGQGTQVTVSS,low polyreactivity
17,QVQLVESGRGFVQAGGRLRLSCAASGRTFGRYTMGWYRQAPGKDRELVASISNTARTNYADSVKGRFTISRDNAKNTVYLQMNSLKPEDTAVYYCAATYIVRYGYWGQGTQVTVSS,low polyreactivity
18,QVQLVESGGGLVQAGGSLRLSCAASGLIFRYYAMGWYRQAPGKERELVAVINYSGGRTYYADSVKGRFTISRDNAKNTVYLQMNSLKPEDTAVYYCAASFASKYEYWGQGTQVTVSS,high polyreactivity
19,QVQLVESGGGLVQAGGSLRLSCAASGYIIDVNTMGWYRPAPGKDRELVAAITSGGTTYYADSVKGRFTISRDNAKNTVYLQMNSLKPEDTAAYYCAALWSRRRSRPSFDYWGQGTQVTVSS,high polyreactivity
20,QVQVVESGGGLVQAGGSLRLSCAASGRTFDWYLMGWYRQAPGKERELVASIRGTGSTYYADSVKGRFTISRDNAKNTVYLQMNSLKAEDTAVYYCAARPGFLYSKYNYWGQGTQVTVSS,high polyreactivity
21,QVQLVESGGGLVQAGGSLRLSCAASGRFFVPYFIGSYRQAPGTERELVASISDSDTSTYYADSVKGRFTISRDNAKNTVYLQMNSLKPEDTAVYYCNVDYWGQGTQVTLSS,low polyreactivity
